The source of these data is US20250376501A1 (JINGYUAN BIOSCIENCES SUZHOU, published 2025).

For orientation: IC50 means the point on the concentration scale where inhibition reaches its midpoint. One may read the EC50 as the concentration needed to bring the measured effect to its halfway point.

The target of test [1] is T1, hTSLP recombinant protein (ACROBiosystems, Cat. No. TSP-H52Ha) (human, UniProt Q969D9 29-159).
T1 construct: Bought protein; also called hTSLP protein; hTSLP-his; not shown: His tag
T1 sequence (Q969D9 29-159 R127A/R130A limits assumed): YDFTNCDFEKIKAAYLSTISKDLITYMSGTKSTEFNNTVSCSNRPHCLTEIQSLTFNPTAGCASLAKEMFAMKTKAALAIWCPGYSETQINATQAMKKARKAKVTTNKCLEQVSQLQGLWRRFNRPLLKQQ
Description: competitive ELISA: blocks binding of hIL-7Rα-mFc to hTSLP/TSLPR-Fc complex, anti-mouse Fc HRP. On the procedure: TSLPR-Fc fusion protein was coated onto a plate at a concentration of 0.5 μg/mL and a volume of 100 μL per well, and incubated at 4° C. overnight. […] Then, goat anti-mouse Fc tag horseradish peroxidase-labeled antibody (1:5000) was added, and the mixture was reacted at room temperature for 1 hour. Then, TMD substrate solution was added, and the absorbance was read at 450 nm. Data processing and graphical analysis were performed using the software Graphpad Prism 6.0.
A general note: ELISA stands for enzyme-linked immunosorbent assay.

Test [2] concerns the target T2, hTSLP-mFc recombinant protein (ACROBiosystems, Cat. No. TSP-H5255) (human, UniProt Q969D9 29-159).
T2 construct: Bought protein; also called hTSLP-Fc protein; not shown: mouse Fc tag
Description: ELISA, hTSLP-mFc coated 50 ng/well, anti-His HRP. On the procedure: hTSLP-mFc recombinant protein (ACROBiosystems, Cat. No. TSP-H5255) was coated onto a plate at 50 ng/well and incubated at 4° C. overnight. […] After washing, mouse anti-His tag horseradish peroxidase-labeled antibody (1:5000) (purchased from Beijing Sino Biological, 105327-MM02T-H) was added, and the mixture was reacted at room temperature for 1 hour. After washing, TMD substrate solution was added, and the absorbance was read at 450 nm. Data processing and graphical analysis were performed using the software Graphpad Prism 6.0.

In test [3] the target is T1, hTSLP recombinant protein …. Description: competitive ELISA: blocks binding of hTSLP/hTSLPR-Fc complex to coated mouse IL-7Rα-his, anti-human Fc HRP. On the procedure:
Then, goat anti-human Fc tag horseradish peroxidase-labeled antibody (1:10000) was added, and the mixture was reacted at room temperature for 1 hour. Then, TMD substrate solution was added, and the absorbance was read at 450 nm. Data processing and graphical analysis were performed using the software Graphpad Prism 6.0.

Test [4] shares this target. In words: cell-based or functional assay.
A further test concerns the target T3, hTSLP/TSLPR-Fc complex (human, UniProt Q9HC73 23-231).
T3 construct: also called hTSLP/hTSLPR-Fc complex; not shown: His tag of the bought hTSLP; Fc tag of the bought protein (detected with anti-human Fc)
Description: ELISA, TSLPR-Fc coated, hTSLP added, hIL-7Rα-mFc titrated, anti-mouse Fc HRP. On the procedure: TSLPR-Fc recombinant protein (purchased from ACROBiosystems, Cat. No. TSR-H525a) was coated onto a plate at 0.1 μg/well and incubated at 4° C. overnight. Subsequently, the plate was washed and added with 0.1 μg/well of hTSLP, and the mixture was reacted at room temperature for 1 hour. […] After washing, goat anti-mouse Fc tag horseradish peroxidase-labeled antibody (purchased from Abcam, ab97040) was added, and the mixture was reacted at room temperature for 1 hour. After washing, substrate solution was added, and the absorbance was read at 450 nm.

T2 sequence (Q969D9 29-159 R127A/R130A limits assumed): as above

B1: 3H10-his recombinant protein (designed binder)
chain: GSHMDLGKKLLEAAWAGRDDEVRILMANGADVNAGDASGDTPLHLAAFSGHLEIVEVLLKHGADVNAEDLLGMTPLHLAAPFGHLEIVEVLLKHGADVNAAARNNGKTPLHLAAFVGHLEIVEVLLKNGADVNAQDKFGKTAFDISIDNGNEDLAEILQKLNG
notes: Expressed in E. coli Rosetta from pet28b, purified on a nickel column; also called 3H10-his fusion protein; 3H10 recombinant protein; not shown: His tag from vector pet28b
For the molecule B1, the half-inhibitory concentration (IC50) in test [1] was 1.29 nM; in test [3], 1.69 nM. For the same molecule, the EC50 in test [2] is 0.029 µg/mL. Also, the “inhibition of hTSLP-induced reporter gene expression in BaF3-hTSLPR-hIL-7R-STAT5-Luc cells, IC50” value in test [4] turned out to be 0.348 nM. In addition, in test [4], the “inhibition of the proliferation-promoting effect of hTSLP on Ba/F3-TSLPR/IL-7Rα cells (CTG), IC50” value is 1.55 nM.

B2: TSLPR-his (Novoprotein Scientific Inc., Cat. No. CW75) (receptor, UniProt Q9HC73 23-231, looked up)
chain: QGGAAEGVQIQIIYFNLETVQVTWNASKYSRTNLTFHYRFNGDEAYDQCTNYLLQEGHTSGCLLDAEQRDDILYFSIRNGTHPVFTASRWMVYYLKPSSPKHVRFSWHQDAVTVTCSDLSYGDLLYEVQYRSPFDTEWQSKQENTCNVTIEGLDAEKCYSFWVRVKAMEDVYGPDTYPSDWSEVTCWQRGEIRDACAETPTPPKPKLSK
notes: Bought protein; not shown: His tag
Regarding B2, in test [2], the concentration for a half-maximal effect (EC50) amounted to 0.803 µg/mL.

B3: hIL-7Rα-mFc (ACROBiosystems, Cat. No. ILA-H5258) (Fc fusion, human, UniProt P16871 21-239, looked up)
chain: ESGYAQNGDLEDAELDDYSFSCYSQLEVNGSQHSLTCAFEDPDVNITNLEFEICGALVEVKCLNFRKLQEIYFIETKKFLLIGKSNICVKVGEKSLTCKKIDLTTIVKPEAPFDLSVVYREGANDFVVTFNTSHLQKKYVKVLMHDVAYRQEKDENKWTHVNLSSTKLTLLQRKLQPAAMYEIKVRSIPDHYFKGFWSEWSPSYYFRTPEINNSSGEMD
notes: Bought protein; not shown: mouse Fc tag
Take B3: the EC50 with hTSLP/TSLPR-Fc complex amounted to 0.689 µg/mL.
